{"source": "patent US20260216242A1", "about": "(ALMAC DISCOVERY, published 2026)", "binders": {"B1": {"name": "D10 A06-hFc (S239/442C T366Y/Y407T), [G4S]1 linker, MC-vc-PAB-MMAE conjugate, #676 (Fc fusion, DAR 4)", "chain 1": "QVQLVESGGGLVQPGGSLRLSCAASGSIFSVNTMGWYRQAPGKQRDLVAVATSGGTIHYADSVKGRFTISRDNAKNTVYLQMNSLKPEDTAVYYCNLVVPYGMIAGDHDYWGQGTKVTVSSGGGGSEPKSSDKTHTCPPCPAPELLGGPCVFLFPPKPKDTLMISRTPEVTCVVVDVSHEDPEVKFNWYVDGVEVHNAKTKPREEQYNSTYRVVSVLTVLHQDWLNGKEYKCKVSNKALPAPIEKTISKAKGQPREPQVYTLPPSRDELTKNQVSLYCLVKGFYPSDIAVEWESNGQPENNYKTTPPVLDSDGSFFLYSKLTVDKSRWQQGNVFSCSVMHEALHNHYTQKSLCLSPGK", "chain 2": "QVHLVESGGGLVQAGGSLRLSCAASGRTFLSMGWFRQAPGKEREFVAAISWTGGSTGYADSVKGRFTISRESDKETMYLQMNSLKPEDTAVYYCAARGDVYYGGDDATRYKYWGQGTQVTVSSGGGGSEPKSSDKTHTCPPCPAPELLGGPCVFLFPPKPKDTLMISRTPEVTCVVVDVSHEDPEVKFNWYVDGVEVHNAKTKPREEQYNSTYRVVSVLTVLHQDWLNGKEYKCKVSNKALPAPIEKTISKAKGQPREPQVYTLPPSRDELTKNQVSLTCLVKGFYPSDIAVEWESNGQPENNYKTTPPVLDSDGSFFLTSKLTVDKSRWQQGNVFSCSVMHEALHNHYTQKSLCLSPGK", "modifications": "MC-vc-PAB-MMAE on Cys of S239C and S442C (EU numbering)", "notes": "Biparatopic knob-into-hole VHH-hFc heterodimer, DAR 4; The assignment of T366Y to the first named VHH and Y407T to the second follows the order of the name; No paragraph spells out this pair; also called D10-A06-hFc-vcPAB-MMAE; D10-A06 hFc-vc-MMAE"}, "B2": {"name": "D10 E06-hFc (S239/442C T366Y/Y407T), [G4S]1 linker, MC-vc-PAB-MMAE conjugate, #677 (Fc fusion, DAR 4)", "chain 1": "B1 chain 1", "chain 2": "QVHLVESGGGLVQAGGSLRLSCAASRRSFSEYAMGWFRQAPGKEREFVAAIGWSGVIEYADSVKGRFTISRDNAKDTVYLQMNSLKPEDTAVYYCAAGLGIRVVSQTPAYWGQGTQVTVSSGGGGSEPKSSDKTHTCPPCPAPELLGGPCVFLFPPKPKDTLMISRTPEVTCVVVDVSHEDPEVKFNWYVDGVEVHNAKTKPREEQYNSTYRVVSVLTVLHQDWLNGKEYKCKVSNKALPAPIEKTISKAKGQPREPQVYTLPPSRDELTKNQVSLTCLVKGFYPSDIAVEWESNGQPENNYKTTPPVLDSDGSFFLTSKLTVDKSRWQQGNVFSCSVMHEALHNHYTQKSLCLSPGK", "modifications": "MC-vc-PAB-MMAE on Cys of S239C and S442C (EU numbering)", "notes": "Biparatopic knob-into-hole VHH-hFc heterodimer, DAR 4; also called D10-E06-hFc-vcPAB-MMAE; D10-E06 hFc-vc-MMAE"}, "B3": {"name": "D10 A06-hFc (S239/442C T366Y/Y407T), [G4S]3 linker, MC-vc-PAB-MMAE conjugate, #633 (Fc fusion, DAR 4)", "chain 1": "QVQLVESGGGLVQPGGSLRLSCAASGSIFSVNTMGWYRQAPGKQRDLVAVATSGGTIHYADSVKGRFTISRDNAKNTVYLQMNSLKPEDTAVYYCNLVVPYGMIAGDHDYWGQGTKVTVSSGGGGSGGGGSGGGGSEPKSSDKTHTCPPCPAPELLGGPCVFLFPPKPKDTLMISRTPEVTCVVVDVSHEDPEVKFNWYVDGVEVHNAKTKPREEQYNSTYRVVSVLTVLHQDWLNGKEYKCKVSNKALPAPIEKTISKAKGQPREPQVYTLPPSRDELTKNQVSLYCLVKGFYPSDIAVEWESNGQPENNYKTTPPVLDSDGSFFLYSKLTVDKSRWQQGNVFSCSVMHEALHNHYTQKSLCLSPGK", "chain 2": "QVHLVESGGGLVQAGGSLRLSCAASGRTFLSMGWFRQAPGKEREFVAAISWTGGSTGYADSVKGRFTISRESDKETMYLQMNSLKPEDTAVYYCAARGDVYYGGDDATRYKYWGQGTQVTVSSGGGGSGGGGSGGGGSEPKSSDKTHTCPPCPAPELLGGPCVFLFPPKPKDTLMISRTPEVTCVVVDVSHEDPEVKFNWYVDGVEVHNAKTKPREEQYNSTYRVVSVLTVLHQDWLNGKEYKCKVSNKALPAPIEKTISKAKGQPREPQVYTLPPSRDELTKNQVSLTCLVKGFYPSDIAVEWESNGQPENNYKTTPPVLDSDGSFFLTSKLTVDKSRWQQGNVFSCSVMHEALHNHYTQKSLCLSPGK", "modifications": "MC-vc-PAB-MMAE on Cys of S239C and S442C (EU numbering)", "notes": "Biparatopic knob-into-hole VHH-hFc heterodimer, DAR 4; The assignment of T366Y to the first named VHH and Y407T to the second follows the order of the name; No paragraph spells out this pair; also called D10-A06 hFc-vcPAB-MMAE; D10-A06-hFc-vc-MMAE"}, "B4": {"name": "D10 E06-hFc (S239/442C T366Y/Y407T), [G4S]3 linker, MC-vc-PAB-MMAE conjugate, #634 (Fc fusion, DAR 4)", "chain 1": "B3 chain 1", "chain 2": "QVHLVESGGGLVQAGGSLRLSCAASRRSFSEYAMGWFRQAPGKEREFVAAIGWSGVIEYADSVKGRFTISRDNAKDTVYLQMNSLKPEDTAVYYCAAGLGIRVVSQTPAYWGQGTQVTVSSGGGGSGGGGSGGGGSEPKSSDKTHTCPPCPAPELLGGPCVFLFPPKPKDTLMISRTPEVTCVVVDVSHEDPEVKFNWYVDGVEVHNAKTKPREEQYNSTYRVVSVLTVLHQDWLNGKEYKCKVSNKALPAPIEKTISKAKGQPREPQVYTLPPSRDELTKNQVSLTCLVKGFYPSDIAVEWESNGQPENNYKTTPPVLDSDGSFFLTSKLTVDKSRWQQGNVFSCSVMHEALHNHYTQKSLCLSPGK", "modifications": "MC-vc-PAB-MMAE on Cys of S239C and S442C (EU numbering)", "notes": "Biparatopic knob-into-hole VHH-hFc heterodimer, DAR 4; also called D10-E06 hFc-vcPAB-MMAE; D10-E06 hFc-vc-MMAE"}}, "data": [{"target": "T1, human ALPP (alkaline phosphatase, placental type) expressed on the surface of CHO cells (human, UniProt P05187 23-506)", "T1 sequence (P05187 23-506 limits assumed)": "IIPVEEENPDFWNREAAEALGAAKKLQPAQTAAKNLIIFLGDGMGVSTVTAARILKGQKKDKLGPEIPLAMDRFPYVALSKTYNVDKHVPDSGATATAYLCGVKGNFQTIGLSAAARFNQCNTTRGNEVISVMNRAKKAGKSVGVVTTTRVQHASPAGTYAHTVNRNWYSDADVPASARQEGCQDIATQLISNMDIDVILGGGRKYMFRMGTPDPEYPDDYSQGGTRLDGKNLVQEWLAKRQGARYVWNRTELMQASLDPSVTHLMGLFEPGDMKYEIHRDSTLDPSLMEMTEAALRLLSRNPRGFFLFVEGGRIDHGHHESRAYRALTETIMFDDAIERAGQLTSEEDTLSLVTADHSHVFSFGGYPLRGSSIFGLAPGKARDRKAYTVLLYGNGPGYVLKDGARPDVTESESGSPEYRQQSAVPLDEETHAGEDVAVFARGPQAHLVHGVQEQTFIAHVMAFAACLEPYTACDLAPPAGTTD", "assay": "cell-based or functional assay", "units": {"IC50 at 96 h, cell-killing of CHO-ALPP cells": "nM"}, "values": [{"binder": "B1", "IC50 at 96 h, cell-killing of CHO-ALPP cells": 5}, {"binder": "B2", "IC50 at 96 h, cell-killing of CHO-ALPP cells": 3.3}, {"binder": "B3", "IC50 at 96 h, cell-killing of CHO-ALPP cells": 10.1}, {"binder": "B4", "IC50 at 96 h, cell-killing of CHO-ALPP cells": 9.2}]}, {"target": "T2, human ALPPL2 (alkaline phosphatase, germ cell type) expressed on the surface of CHO cells (human, UniProt P10696 20-503)", "T2 sequence (P10696 20-503)": "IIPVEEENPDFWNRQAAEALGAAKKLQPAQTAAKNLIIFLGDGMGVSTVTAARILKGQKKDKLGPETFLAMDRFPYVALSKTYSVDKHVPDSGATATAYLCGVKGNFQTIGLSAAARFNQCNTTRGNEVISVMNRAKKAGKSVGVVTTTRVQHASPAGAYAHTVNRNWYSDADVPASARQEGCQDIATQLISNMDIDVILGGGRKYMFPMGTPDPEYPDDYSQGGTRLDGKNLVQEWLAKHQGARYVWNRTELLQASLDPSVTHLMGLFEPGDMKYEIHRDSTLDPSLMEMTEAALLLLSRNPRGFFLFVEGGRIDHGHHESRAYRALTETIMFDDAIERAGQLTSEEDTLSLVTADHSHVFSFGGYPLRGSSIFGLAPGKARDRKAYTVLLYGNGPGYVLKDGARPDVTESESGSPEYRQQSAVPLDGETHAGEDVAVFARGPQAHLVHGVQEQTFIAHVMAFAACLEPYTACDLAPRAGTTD", "assay": "cell-based or functional assay", "units": {"IC50 at 96 h, cell-killing of CHO-ALPPL2 cells": "nM"}, "values": [{"binder": "B2", "IC50 at 96 h, cell-killing of CHO-ALPPL2 cells": 21.1}, {"binder": "B4", "IC50 at 96 h, cell-killing of CHO-ALPPL2 cells": 9.1}]}, {"target": "T3, human ALPI (intestinal alkaline phosphatase) expressed on the surface of CHO cells (human, UniProt P09923 20-503)", "T3 sequence (looked up)": "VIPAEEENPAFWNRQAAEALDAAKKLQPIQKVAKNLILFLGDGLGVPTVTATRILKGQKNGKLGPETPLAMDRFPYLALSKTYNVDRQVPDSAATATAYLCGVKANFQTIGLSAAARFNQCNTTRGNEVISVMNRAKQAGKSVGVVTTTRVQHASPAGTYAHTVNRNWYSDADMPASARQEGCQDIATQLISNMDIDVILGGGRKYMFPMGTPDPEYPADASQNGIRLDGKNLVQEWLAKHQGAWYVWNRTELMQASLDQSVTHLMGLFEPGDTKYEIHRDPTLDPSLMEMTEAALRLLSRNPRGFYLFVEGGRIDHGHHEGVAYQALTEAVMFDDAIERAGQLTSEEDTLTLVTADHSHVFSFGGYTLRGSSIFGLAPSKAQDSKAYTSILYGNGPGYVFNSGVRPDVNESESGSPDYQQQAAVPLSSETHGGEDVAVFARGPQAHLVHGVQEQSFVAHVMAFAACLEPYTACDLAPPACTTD", "assay": "cell-based or functional assay", "units": {"IC50 at 96 h, cell-killing of CHO-ALPI cells": "nM"}, "values": [{"binder": "B1", "IC50 at 96 h, cell-killing of CHO-ALPI cells": "> 1000"}, {"binder": "B2", "IC50 at 96 h, cell-killing of CHO-ALPI cells": "> 1000"}, {"binder": "B3", "IC50 at 96 h, cell-killing of CHO-ALPI cells": "> 1000"}, {"binder": "B4", "IC50 at 96 h, cell-killing of CHO-ALPI cells": "> 1000"}]}, {"target": "T4, human ALPL (tissue non-specific alkaline phosphatase) expressed on the surface of CHO cells (human, UniProt P05186 18-501)", "T4 sequence (looked up)": "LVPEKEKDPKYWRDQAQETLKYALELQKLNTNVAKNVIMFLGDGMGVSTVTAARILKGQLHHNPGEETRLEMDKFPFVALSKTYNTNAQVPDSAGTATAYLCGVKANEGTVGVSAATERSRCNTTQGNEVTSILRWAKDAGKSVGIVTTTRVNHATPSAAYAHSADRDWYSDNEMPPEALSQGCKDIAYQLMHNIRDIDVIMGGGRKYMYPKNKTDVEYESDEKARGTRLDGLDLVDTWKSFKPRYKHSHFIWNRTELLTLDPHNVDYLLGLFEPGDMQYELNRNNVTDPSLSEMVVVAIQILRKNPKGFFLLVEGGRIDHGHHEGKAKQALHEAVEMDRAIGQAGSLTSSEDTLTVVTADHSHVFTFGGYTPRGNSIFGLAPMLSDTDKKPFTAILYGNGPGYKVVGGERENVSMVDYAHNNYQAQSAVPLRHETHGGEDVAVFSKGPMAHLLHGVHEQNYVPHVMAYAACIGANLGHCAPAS", "assay": "cell-based or functional assay", "units": {"IC50 at 96 h, cell-killing of CHO-ALPL cells": "nM"}, "values": [{"binder": "B1", "IC50 at 96 h, cell-killing of CHO-ALPL cells": "> 1000"}, {"binder": "B2", "IC50 at 96 h, cell-killing of CHO-ALPL cells": "> 1000"}, {"binder": "B3", "IC50 at 96 h, cell-killing of CHO-ALPL cells": "> 1000"}, {"binder": "B4", "IC50 at 96 h, cell-killing of CHO-ALPL cells": "> 1000"}]}, {"target": "T3, human ALPI (intestinal alkaline …)", "assay": "flow cytometry, CHO-ALPI cells", "values": [{"binder": "B2", "binding result": "no binding (tested: 350 nM (highest concentration))"}, {"binder": "B4", "binding result": "no binding (tested: 350 nM (highest concentration))"}]}, {"target": "T4, human ALPL (tissue non-specific …)", "assay": "flow cytometry, CHO-ALPL cells", "values": [{"binder": "B1", "binding result": "no binding (tested: 350 nM (highest concentration))"}, {"binder": "B2", "binding result": "no binding (tested: 350 nM (highest concentration))"}, {"binder": "B3", "binding result": "no binding (tested: 350 nM (highest concentration))"}, {"binder": "B4", "binding result": "no binding (tested: 350 nM (highest concentration))"}]}, {"target": "T3, human ALPI (intestinal alkaline …)", "assay": "flow cytometry on CHO-ALPI cells", "units": {"MFI on CHO-ALPI cells at 350 nM as percent of MFI on CHO-ALPP cells (KDapp not-determinable)": "%"}, "values": [{"binder": "B1", "MFI on CHO-ALPI cells at 350 nM as percent of MFI on CHO-ALPP cells (KDapp not-determinable)": "≤ 1"}, {"binder": "B3", "MFI on CHO-ALPI cells at 350 nM as percent of MFI on CHO-ALPP cells (KDapp not-determinable)": "≤ 1"}]}, {"target": "T1, human ALPP (alkaline phosphatase, …)", "assay": "flow cytometry on CHO-ALPP cells, apparent KD (KDapp)", "in_short": "(§1)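 Cell-surface binding to CHO cells stably transfected with human ALPP, ALPPL2, ALPI or ALPL; cells detached with 0.1% EDTA/PBS, incubated with biparatopic VHH-hFc drug conjugates over a concentration range for 1 hr on ice. Bound agent detected with FITC anti-human Ab (30 min, ice, dark) by flow cytometry; KDapp derived from binding.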", "units": {"Kd": "nM"}, "values": [{"binder": "B1", "Kd": 14.4}, {"binder": "B2", "Kd": 9.4}, {"binder": "B3", "Kd": 7.6}, {"binder": "B4", "Kd": 8.3}]}, {"target": "T2, human ALPPL2 (alkaline phosphatase, …)", "assay": "flow cytometry on CHO-ALPPL2 cells, apparent KD (KDapp)", "in_short": "as §1", "units": {"Kd": "nM"}, "values": [{"binder": "B1", "Kd": 5}, {"binder": "B2", "Kd": 5.5}, {"binder": "B3", "Kd": 4.4}, {"binder": "B4", "Kd": 5.9}]}]}
